In IntAct's records for PubMed 25761904:

B1: Dual oxidase 2 (Homo sapiens), Q9NRD8 (parent)
chain: MLRARPEALMLLGALLTGSLGPSGNQDALSLPWEVQRYDGWFNNLRHHERGAVGCRLQRRVPANYADGVYQALEEPQLPNPRRLSNAATRGIAGLPSLHNRTVLGVFFGYHVLSDVVSVETPGCPAEFLNIRIPPGDPVFDPDQRGDVVLPFQRSRWDPETGRSPSNPRDLANQVTGWLDGSAIYGSSHSWSDALRSFSGGQLASGPDPAFPRDSQNPLLMWAAPDPATGQNGPRGLYAFGAERGNREPFLQALGLLWFRYHNLWAQRLARQHPDWEDEELFQHARKRVIATYQNIAVYEWLPSFLQKTLPEYTGYRPFLDPSISPEFVVASEQFFSTMVPPGVYMRNASCHFRKVLNKGFQSSQALRVCNNYWIRENPNLNSTQEVNELLLGMASQISELEDNIVVEDLRDYWPGPGKFSRTDYVASSIQRGRDMGLPSYSQALLAFGLDIPRNWSDLNPNVDPQVLEATAALYNQDLSQLELLLGGLLESHGDPGPLFSAIVLDQFVRLRDGDRYWFENTRNGLFSKKEIEDIRNTTLRDVLVAVINIDPSALQPNVFVWHKGAPCPQPKQLTTDGLPQCAPLTVLDFFEGSSPGFAITIIALCCLPLVSLLLSGVVAYFRGREHKKLQKKLKESVKKEAAKDGVPAMEWPGPKERSSPIIIQLLSDRCLQVLNRHLTVLRVVQLQPLQQVNLILSNNRGCRTLLLKIPKEYDLVLLFSSEEERGAFVQQLWDFCVRWALGLHVAEMSEKELFRKAVTKQQRERILEIFFRHLFAQVLDINQADAGTLPLDSSQKVREALTCELSRAEFAESLGLKPQDMFVESMFSLADKDGNGYLSFREFLDILVVFMKGSPEDKSRLMFTMYDLDENGFLSKDEFFTMMRSFIEISNNCLSKAQLAEVVESMFRESGFQDKEELTWEDFHFMLRDHDSELRFTQLCVKGGGGGGNGIRDIFKQNISCRVSFITRTPGERSHPQGLGPPAPEAPELGGPGLKKRFGKKAAVPTPRLYTEALQEKMQRGFLAQKLQQYKRFVENYRRHIVCVAIFSAICVGVFADRAYYYGFASPPSDIAQTTLVGIILSRGTAASVSFMFSYILLTMCRNLITFLRETFLNRYVPFDAAVDFHRWIAMAAVVLAILHSAGHAVNVYIFSVSPLSLLACIFPNVFVNDGSKLPQKFYWWFFQTVPGMTGVLLLLVLAIMYVFASHHFRRRSFRGFWLTHHLYILLYALLIIHGSYALIQLPTFHIYFLVPAIIYGGDKLVSLSRKKVEISVVKAELLPSGVTYLQFQRPQGFEYKSGQWVRIACLALGTTEYHPFTLTSAPHEDTLSLHIRAVGPWTTRLREIYSSPKGNGCAGYPKLYLDGPFGEGHQEWHKFEVSVLVGGGIGVTPFASILKDLVFKSSLGSQMLCKKIYFIWVTRTQRQFEWLADIIQEVEENDHQDLVSVHIYVTQLAEKFDLRTTMLYICERHFQKVLNRSLFTGLRSITHFGRPPFEPFFNSLQEVHPQVRKIGVFSCGPPGMTKNVEKACQLVNRQDRAHFMHHYENF
partner: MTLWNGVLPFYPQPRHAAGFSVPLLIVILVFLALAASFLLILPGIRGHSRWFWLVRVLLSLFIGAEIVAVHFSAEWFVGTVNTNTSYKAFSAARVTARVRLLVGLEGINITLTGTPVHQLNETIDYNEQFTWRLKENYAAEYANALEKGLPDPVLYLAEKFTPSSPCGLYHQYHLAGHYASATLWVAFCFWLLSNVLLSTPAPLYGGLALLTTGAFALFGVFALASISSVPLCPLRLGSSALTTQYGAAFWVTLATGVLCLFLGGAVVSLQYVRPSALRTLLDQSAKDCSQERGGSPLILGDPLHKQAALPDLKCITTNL
B2: Dual oxidase maturation factor 2 (Homo sapiens), Q1HG44 (parent)
chain: B1 partner

Variants of: B1
Conditions: with doxa2_human DUOXA2, Q1HG44
For C124G, the “effect of a mutation on the interaction” value was “disrupting interaction strength”.

Variants of: B1
Conditions: with doxa2_human DUOXA2, Q1HG44
Remark: another data set of the same source
With C582G the “effect of a mutation on the interaction” value was “disrupting interaction strength”.
C568G was tested, and the “effect of a mutation on the interaction” value was “disrupting interaction strength”.
With C351G the “effect of a mutation on the interaction” value was “with no effect”.
With C370G the “effect of a mutation on the interaction” value was “decreasing interaction strength”.

Variants of: B1
Conditions: with doxa2_human DUOXA2, Q1HG44
Remark: another data set of the same source
With C1162G the “effect of a mutation on the interaction” value was “disrupting interaction strength”.

Variants of: B2
Conditions: with duox2_human DUOX2, Q9NRD8
MTLWNGVLPFYPQPRHAAGFSVPLLIVILVFLALAASFLLILPGIRGHSRWFWLVRVLLSLFIGAEIVAVHFSAEWFVGTVNTNTSYKAFSAARVTARVRLLVGLEGINITLTGTPVHQLNETIDYNEQFTWRLKENYAAEYANALEKGLPDPVLYLAEKFTPSSPGGLYHQYHLAGHYASATLWVAFCFWLLSNVLLSTPAPLYGGLALLTTGAFALFGVFALASISSVPLCPLRLGSSALTTQYGAAFWVTLATGVLCLFLGGAVVSLQYVRPSALRTLLDQSAKDCSQERGGSPLILGDPLHKQAALPDLKCITTNL [C167G] was tested, and the “effect of a mutation on the interaction” value was “disrupting interaction strength”.
With MTLWNGVLPFYPQPRHAAGFSVPLLIVILVFLALAASFLLILPGIRGHSRWFWLVRVLLSLFIGAEIVAVHFSAEWFVGTVNTNTSYKAFSAARVTARVRLLVGLEGINITLTGTPVHQLNETIDYNEQFTWRLKENYAAEYANALEKGLPDPVLYLAEKFTPSSPCGLYHQYHLAGHYASATLWVAFCFWLLSNVLLSTPAPLYGGLALLTTGAFALFGVFALASISSVPLGPLRLGSSALTTQYGAAFWVTLATGVLCLFLGGAVVSLQYVRPSALRTLLDQSAKDCSQERGGSPLILGDPLHKQAALPDLKCITTNL [C233G] the “effect of a mutation on the interaction” value was “disrupting interaction strength”.
